Measured values published in PMC7255509, “Crystal structure of the catalytic C‐lobe of the HECT‐type ubiquitin ligase E6AP” (Protein Science : A Publication of the Protein Society, 2020).

Target: the molecule itself
Test: crystal structure; crystallised at >=30 mg/ml (crystal used: 60 mg/ml), 20°C, sitting drops, 0.1 M calcium chloride, 0.1 M sodium acetate pH 4.6, 30% PEG400; 1.3 Å; dimer of two symmetry-related molecules

B1: C-lobe of the catalytic (HECT) domain of E6AP (domain or fragment, UniProt Q05086-2 741-852, looked up)
chain: NLDFQALEETTEYDGGYTRDSVLIREFWEIVHSFTDEQKRLFLQFTTGTDRAPVGGLGKLKMIIAKNGPDTERLPTSHTCFNVLLLPEYSSKEKLKERLLKAITYAKGFGML
notes: E6AP (UBE3A), HECT-type ubiquitin ligase, C-lobe of the catalytic domain, residues 741-852; catalytic Cys820; numbers count on: isoform 1 (ends at residue 852); Cleavage by 3C protease may leave a few residues of the vector at the N-terminus; In the crystal the two Cys820 are read as partly joined by an intermolecular disulfide; also called E6AP C-lobe; C-terminal lobe of E6AP; source: E. coli …
stoichiometry N: 2
